Peptide exchange yield data for 60 molecules are collected here from patent US20170096461A1 (IMMATICS BIOTECHNOLOGIES, published 2017).

A value given as a limit tells only on which side of the number the result lay.

The assay deals with T1, HLA-A*02:01 (peptide-receptive MHC class I monomer after UV-ligand exchange) (human).
T1 construct: Monomers made with a UV-sensitive peptide that is cleaved by UV and exchanged for the test peptide; captured on streptavidin plates; also called MHC molecules
Nature of the assay: UV-ligand exchange + anti-b2m ELISA; exchange yield grade: + >=10%, ++ >=20%, +++ >=50, ++++ >=75%. The text has this: Candidate peptides for T cell based therapies according to the present invention were further tested for their MHC binding capacity (affinity). The individual peptide-MHC complexes were produced by UV-ligand exchange, where a UV-sensitive peptide is cleaved upon UV-irradiation, and exchanged with the peptide of interest as analyzed. Only peptide candidates that can effectively bind and stabilize the peptide-receptive MHC molecules prevent dissociation of the MHC complexes. To determine the yield of the exchange reaction, an ELISA was performed based on the detection of the light chain (β2m) of stabilized MHC complexes. The assay was performed as generally described in Rodenko et al. (Rodenko et al., 2006).
96 well MAXISorp plates (NUNC) were coated over night with 2 ug/ml streptavidin in PBS at room temperature, washed 4× and blocked for 1 h at 37° C. in 2% BSA containing blocking buffer. Refolded HLA-A*02:01/MLA-001 monomers served as standards, covering the range of 15-500 ng/ml. Peptide-MHC monomers of the UV-exchange reaction were diluted 100 fold in blocking buffer. Samples were incubated for 1 h at 37° C., washed four times, incubated with 2 ug/ml HRP conjugated anti-β2m for 1 h at 37° C., washed again and detected with TMB solution that is stopped with […]. Absorption was measured at 450 nm. Candidate peptides that show a high exchange yield (preferably higher than 50%, most preferred higher than 75%) are generally preferred for a generation and production of antibodies or fragments thereof, and/or T cell receptors or fragments thereof, as they show sufficient avidity to the MHC molecules and prevent dissociation of the MHC complexes.

In the case of FMGDVFINV [peptide FMGDVFINV (SEQ ID NO: 35)], the peptide exchange yield was ≥ 75%. Take GLLEDERALQL [peptide GLLEDERALQL (SEQ ID NO: 42)]: the peptide exchange yield fell in the range of 50 to 75%. The value for MLFEGLDLVSA [peptide MLFEGLDLVSA (SEQ ID NO: 12)] was 50 to 75%; that for SLAADIPRL [peptide SLAADIPRL (SEQ ID NO: 120)] was 50 to 75%; that for AMLEEVNYI [peptide AMLEEVNYI (SEQ ID NO: 1)] was 50 to 75%. On to KMLGLTVSL [peptide KMLGLTVSL (SEQ ID NO: 30)], for which the peptide exchange yield is 50 to 75%. For SLSGEIILHSV [peptide SLSGEIILHSV (SEQ ID NO: 45)], the peptide exchange yield fell in the range of 20 to 50%. Consider GLSETILAV [peptide GLSETILAV (SEQ ID NO: 25)], for which the peptide exchange yield is ≥ 75%.

FLPEAPAEL [peptide FLPEAPAEL (SEQ ID NO: 111)]: the peptide exchange yield lay within 50 to 75%. In the case of ALLVRLQEV [peptide ALLVRLQEV (SEQ ID NO: 116)], the peptide exchange yield is ≥ 75%. For GLISSLNEI [peptide GLISSLNEI (SEQ ID NO: 38)], the peptide exchange yield is ≥ 75%. With SLLTAISEV [peptide SLLTAISEV (SEQ ID NO: 15)], the peptide exchange yield fell in the range of 50 to 75%. On to GLLDPGMLVNI [peptide GLLDPGMLVNI (SEQ ID NO: 4)], for which the peptide exchange yield fell in the range of 50 to 75%. For ALLEPGGVLTI [peptide ALLEPGGVLTI (SEQ ID NO: 114)] the value was 50 to 75%; for LVFEGIMEV [peptide LVFEGIMEV (SEQ ID NO: 34)], 50 to 75%. The value for ALGEISVSV [peptide ALGEISVSV (SEQ ID NO: 18)] was 50 to 75%. For the molecule YQIDTVINL [peptide YQIDTVINL (SEQ ID NO: 23)], the peptide exchange yield was 50 to 75%. As to SLITDLQTI [peptide SLITDLQTI (SEQ ID NO: 124)], the peptide exchange yield is 50 to 75%. For ILLDDQFQPKL [peptide ILLDDQFQPKL (SEQ ID NO: 108)] the value was ≥ 75%. Regarding VLAEIDPKQLV [peptide VLAEIDPKQLV (SEQ ID NO: 3)], the peptide exchange yield was 50 to 75%.

Take AAASLIRLV [peptide AAASLIRLV (SEQ ID NO: 126)]: the peptide exchange yield was 10 to 20%. For GLLEALLKI [peptide GLLEALLKI (SEQ ID NO: 47)] the value was 50 to 75%; for ILIETKLVL [peptide ILIETKLVL (SEQ ID NO: 14)], 50 to 75%; for SMMPDELLTSL [peptide SMMPDELLTSL (SEQ ID NO: 122)], 50 to 75%. Take LLSEPSLLRTV [peptide LLSEPSLLRTV (SEQ ID NO: 125)]: the peptide exchange yield lay in the range of 50 to 75%.

With MLDEILLQL [peptide MLDEILLQL (SEQ ID NO: 20)], the peptide exchange yield lay within 50 to 75%.

Turning to SMYDKVLML [peptide SMYDKVLML (SEQ ID NO: 105)], the peptide exchange yield is ≥ 75%.

For TMEEMIFEV [peptide TMEEMIFEV (SEQ ID NO: 21)], the peptide exchange yield is 50 to 75%. For KMPDDVWLV [peptide KMPDDVWLV (SEQ ID NO: 106)] the value was ≥ 75%. For VLLTTAVEV [peptide VLLTTAVEV (SEQ ID NO: 19)] the value was 50 to 75%; for SLMLVTVEL [peptide SLMLVTVEL (SEQ ID NO: 17)], 50 to 75%. In the case of RLLQDPVGV [peptide RLLQDPVGV (SEQ ID NO: 31)], the peptide exchange yield is ≥ 75%. The value for ALLPSDCLQEA [peptide ALLPSDCLQEA (SEQ ID NO: 115)] was 50 to 75%.

Consider SLDIITITV [peptide SLDIITITV (SEQ ID NO: 27)], for which the peptide exchange yield was ≥ 75%. Take ALIVGIPSV [peptide ALIVGIPSV (SEQ ID NO: 44)]: the peptide exchange yield was ≥ 75%. For ILVSQLEQL [peptide ILVSQLEQL (SEQ ID NO: 28)], the peptide exchange yield is ≥ 75%. Turning to VILDLPLVI [peptide VILDLPLVI (SEQ ID NO: 16)], the peptide exchange yield lay in the range of 50 to 75%. With RLALNTPKV [peptide RLALNTPKV (SEQ ID NO: 49)], the peptide exchange yield is 20 to 50%. On to GLTETGLYRI [peptide GLTETGLYRI (SEQ ID NO: 110)], for which the peptide exchange yield fell in the range of 50 to 75%. YMLEHVITL [peptide YMLEHVITL (SEQ ID NO: 121)]: the peptide exchange yield lay in the range of 50 to 75%. The value for GLLEVQVEV [peptide GLLEVQVEV (SEQ ID NO: 40)] was 50 to 75%; that for GLDPTQFRV [peptide GLDPTQFRV (SEQ ID NO: 39)] was 50 to 75%; that for VMFNFPDQATV [peptide VMFNFPDQATV (SEQ ID NO: 2)] was 50 to 75%. For RMDGAVTSV [peptide RMDGAVTSV (SEQ ID NO: 36)], the peptide exchange yield lay within 50 to 75%. As for FLMEEVHMI [peptide FLMEEVHMI (SEQ ID NO: 24)], the peptide exchange yield is 50 to 75%. For LLPEKSWEI [peptide LLPEKSWEI (SEQ ID NO: 22)] the value was 50 to 75%. In the case of ALTSLELEL [peptide ALTSLELEL (SEQ ID NO: 32)], the peptide exchange yield was 50 to 75%.

On to SLFYNELHYV [peptide SLFYNELHYV (SEQ ID NO: 37)], for which the peptide exchange yield was 50 to 75%. For SLIGLDLSSV [peptide SLIGLDLSSV (SEQ ID NO: 48)] the value was 50 to 75%; for ALWVAVPKA [peptide ALWVAVPKA (SEQ ID NO: 46)], 50 to 75%; for KLPSFLANV [peptide KLPSFLANV (SEQ ID NO: 118)], 50 to 75%. Take AMYGTKLETI [peptide AMYGTKLETI (SEQ ID NO: 107)]: the peptide exchange yield was ≥ 75%. Turning to KLDKNPNQV [peptide KLDKNPNQV (SEQ ID NO: 123)], the peptide exchange yield was in the range of 50 to 75%. The value for FLLDSAPLNV [peptide FLLDSAPLNV (SEQ ID NO: 117)] was ≥ 75%; that for LLLPGVIKTV [peptide LLLPGVIKTV (SEQ ID NO: 112)] was 50 to 75%; that for KMLDEAVFQV [peptide KMLDEAVFQV (SEQ ID NO: 26)] was ≥ 75%. On to YLWSEVFSM [peptide YLWSEVFSM (SEQ ID NO: 43)], for which the peptide exchange yield fell in the range of 50 to 75%. For SLFERLVVL [peptide SLFERLVVL (SEQ ID NO: 109)] the value was ≥ 75%; for KAYQELLATV [peptide KAYQELLATV (SEQ ID NO: 41)], 50 to 75%; for FLTAFLVQI [peptide FLTAFLVQI (SEQ ID NO: 13)], 50 to 75%.
